# Assay results: patent EP2787008B1 (Samsung Electronics Co., Ltd., dated 2019)
# Biological target: T1, huAbF46-H4-A1 (IgG2 Fc)
# T1 construct: Human IgG2 hinge and constant region, human kappa; also called anti-c-Met antibody; biotinylated anti-c-Met antibody
# Experiment: SPR, Biacore (GE healthcare); format not stated
# T1 sequence (VH, as listed by the source, chain 1 of 2): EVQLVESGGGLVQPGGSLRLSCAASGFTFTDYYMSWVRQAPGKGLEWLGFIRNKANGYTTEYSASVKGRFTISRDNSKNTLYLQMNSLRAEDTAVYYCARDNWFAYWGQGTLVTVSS
# T1 sequence (VL, as listed by the source, chain 2 of 2): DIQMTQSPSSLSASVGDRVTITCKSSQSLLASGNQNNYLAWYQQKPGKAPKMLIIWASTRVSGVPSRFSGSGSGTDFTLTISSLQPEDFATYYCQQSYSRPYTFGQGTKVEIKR
binder,measurement,value
"EW02 (antibody, human IgG1, V domains shown, also called EW02 antibody) VH: EVQLLESGGGLVQPGGSLRLSCAASGFTFSNYAMSWVRQAPGKGLEWVSSISSSGGNTYYADSVKGRFTISRDNSKNTLYLQMNSLGAEDTAVYYCAKYHSVFDYWGQGTLVTVSS VL: not shown",Kd,38.4 nM
same,koff,0.0032 s⁻¹
same,kon,85000 M⁻¹ s⁻¹
